{
  "source": "patent US20220235135A1",
  "about": "(COUNCIL OF THE QUEENSLAND INSTITUTE OF MEDICAL RESEARCH, published 2022)",
  "target": "T1, Human GAL9 protein (Galectin-9) (human, UniProt O00182 1-355)",
  "T1 construct": "Bought His-tagged protein; also called hGAL9; Human Gal9 His-tag (Acro Biosystems Cat #LG9-H5244)",
  "T1 sequence (O00182 whole entry)": "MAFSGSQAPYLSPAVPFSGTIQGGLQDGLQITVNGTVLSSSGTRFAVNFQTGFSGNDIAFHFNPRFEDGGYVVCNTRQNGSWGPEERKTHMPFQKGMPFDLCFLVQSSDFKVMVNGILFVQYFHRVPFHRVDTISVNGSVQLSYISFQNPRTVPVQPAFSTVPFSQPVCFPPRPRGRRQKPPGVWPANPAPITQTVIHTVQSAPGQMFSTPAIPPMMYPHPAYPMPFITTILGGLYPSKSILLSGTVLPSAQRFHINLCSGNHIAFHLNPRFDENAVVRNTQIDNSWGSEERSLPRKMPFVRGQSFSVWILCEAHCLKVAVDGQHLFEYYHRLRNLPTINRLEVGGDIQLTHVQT",
  "assay": "Octet BLI, IgG1 on biosensor, GAL9 analyte dilution series, global fit (monovalent affinity)",
  "description": "To measure qualitative binding affinity in the GAL9 binder discovery campaigns, IgG1 reformatted binders were immobilized to a biosensor on an Octet (Pall ForteBio) biolayer interferometer.\nSoluble GAL9 antigen was then added to the system and binding measured. […] Octet kinetic analysis software was used to calculate the kinetic and equilibrium binding constants based on the rate of association and dissociation curves. Analysis was performed globally (global fit) where kinetic constants were derived simultaneously from all analyte concentration included in the experiment.",
  "data": [
    {"binder": "P9-10 (antibody, human IgG1, kappa, V domains shown, bivalent monospecific native human full-length IgG1; also called ABS clone P9-10) VH: EVQLVESGGGLVQPGGSLRLSCAASGFTFDYYVIHWVRQAPGKGLEWVAAIDSYWGDTYYADSVKGRFTISADTSKNTAYLQMNSLRAEDTAVYYCARFYFYGFDYWGQGTLVTVSS VL: DIQMTQSPSSLSASVGDRVTITCRASQSVSSAVAWYQQKPGKAPKLLIYSASSLYSGVPSRFSGSRSGTDFTLTISSLQPEDFATYYCQQYSWSLWTFGQGTKVEIKR", "values": [
      {"measurement": "Kd", "value": 5.77, "unit": "nM"}
    ]},
    {"binder": "P9-15 (antibody, human IgG1, kappa, V domains shown, bivalent monospecific native human full-length IgG1; also called ABS clone P9-15; Clone 15) VH: EVQLVESGGGLVQPGGSLRLSCAASGFTFRYYWIHWVRQAPGKGLEWVAAIFPSGGITTYADSVKGRFTISADTSKNTAYLQMNSLRAEDTAVYYCARGWPWGLDYWGQGTLVTVSS VL: DIQMTQSPSSLSASVGDRVTITCRASQSVSSAVAWYQQKPGKAPKLLIYSASSLYSGVPSRFSGSRSGTDFTLTISSLQPEDFATYYCQQRDRSPYTFGQGTKVEIKR", "values": [
      {"measurement": "Kd", "value": 2.21, "unit": "nM"}
    ]},
    {"binder": "P9-16 (antibody, human IgG1, kappa, V domains shown, bivalent monospecific native human full-length IgG1; also called ABS clone P9-16) VH: EVQLVESGGGLVQPGGSLRLSCAASGFTFSYYWIHWVRQAPGKGLEWVADIYPSSGYTYYADSVKGRFTISADTSKNTAYLQMNSLRAEDTAVYYCARGWYAAYGMDYWGQGTLVTVSS VL: DIQMTQSPSSLSASVGDRVTITCRASQSVSSAVAWYQQKPGKAPKLLIYSASSLYSGVPSRFSGSRSGTDFTLTISSLQPEDFATYYCQQYALRPLTFGQGTKVEIKR", "values": [
      {"measurement": "Kd", "value": 2.87, "unit": "nM"}
    ]},
    {"binder": "P9-18 (antibody, human IgG1, kappa, V domains shown, the murine IgG backbones were used only in vivo; also called ABS clone P9-18; Clone 18) VH: EVQLVESGGGLVQPGGSLRLSCAASGFTFSWYVIHWVRQAPGKGLEWVAAIYPYHSKTYYADSVKGRFTISADTSKNTAYLQMNSLRAEDTAVYYCARGYWYGMDYWGQGTLVTVSS VL: DIQMTQSPSSLSASVGDRVTITCRASQSVSSAVAWYQQKPGKAPKLLIYSASSLYSGVPSRFSGSRSGTDFTLTISSLQPEDFATYYCQQYTDAPWTFGQGTKVEIKR", "values": [
      {"measurement": "Kd", "value": 6.24, "unit": "nM"}
    ]},
    {"binder": "P9-22 (antibody, human IgG1, kappa, V domains shown, bivalent monospecific native human full-length IgG1; also called ABS clone P9-22; α-GAL9 (P9-22)) VH: EVQLVESGGGLVQPGGSLRLSCAASGFTFSSYYIHWVRQAPGKGLEWVAAIYPFSGGTYYADSVKGRFTISADTSKNTAYLQMNSLRAEDTAVYYCARGYYVYVVMDYWGQGTLVTVSS VL: DIQMTQSPSSLSASVGDRVTITCRASQSVSSAVAWYQQKPGKAPKLLIYSASSLYSGVPSRFSGSRSGTDFTLTISSLQPEDFATYYCQQYKSSPWTFGQGTKVEIKR", "values": [
      {"measurement": "Kd", "value": 4.85, "unit": "nM"}
    ]},
    {"binder": "P9-28 (antibody, human IgG1, kappa, V domains shown, bivalent monospecific native human full-length IgG1; also called ABS clone P9-28; α-GAL9 (P9-28)) VH: EVQLVESGGGLVQPGGSLRLSCAASGFTFGFYYIHWVRQAPGKGLEWVAFIDPHGGSTYYADSVKGRFTISADTSKNTAYLQMNSLRAEDTAVYYCARLSYPGVLDYWGQGTLVTVSS VL: DIQMTQSPSSLSASVGDRVTITCRASQSVSSAVAWYQQKPGKAPKLLIYSASSLYSGVPSRFSGSRSGTDFTLTISSLQPEDFATYYCQQGYSTLVTFGQGTKVEIKR", "values": [
      {"measurement": "Kd", "value": 3.36, "unit": "nM"}
    ]},
    {"binder": "P9-32 (antibody, human IgG1, kappa, V domains shown, bivalent monospecific native human full-length IgG1; also called ABS clone P9-32) VH: EVQLVESGGGLVQPGGSLRLSCAASGFTFSAYWIHWVRQAPGKGLEWVALIGPDGGYTYYADSVKGRFTISADTSKNTAYLQMNSLRAEDTAVYYCARQASRGLDYWGQGTLVTVSS VL: DIQMTQSPSSLSASVGDRVTITCRASQSVSSAVAWYQQKPGKAPKLLIYSASSLYSGVPSRFSGSRSGTDFTLTISSLQPEDFATYYCQQWSSPLHTFGQGTKVEIKR", "values": [
      {"measurement": "Kd", "value": 1.08, "unit": "nM"}
    ]}
  ]
}
